# Test results taken from patent US20210205411A1, “CCR5 INHIBITOR FOR USE IN TREATING CANCER” (ORION BIOTECHNOLOGY SWITZERLAND SÀRL, priority 2018, published 2021).
# T1: recombinant human CCR1 (Homo sapiens, UniProt P32246)
# T1 construct: host or cells: CHO-K1 cells (membrane extracts)
# T1 sequence (P32246 1-355): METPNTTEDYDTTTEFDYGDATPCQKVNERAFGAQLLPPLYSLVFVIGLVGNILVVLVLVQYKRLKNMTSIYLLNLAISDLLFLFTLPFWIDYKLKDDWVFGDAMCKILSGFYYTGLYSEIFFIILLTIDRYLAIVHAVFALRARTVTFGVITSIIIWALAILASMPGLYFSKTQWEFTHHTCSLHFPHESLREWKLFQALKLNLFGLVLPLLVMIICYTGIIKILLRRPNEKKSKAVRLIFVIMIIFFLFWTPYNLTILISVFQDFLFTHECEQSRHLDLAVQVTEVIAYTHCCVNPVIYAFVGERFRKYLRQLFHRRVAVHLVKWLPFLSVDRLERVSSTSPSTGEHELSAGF
# T2: recombinant human CCR3 (Homo sapiens, UniProt P51677)
# T2 construct: host or cells: CHO-K1 cells (membrane extracts)
# T2 sequence (P51677 1-355): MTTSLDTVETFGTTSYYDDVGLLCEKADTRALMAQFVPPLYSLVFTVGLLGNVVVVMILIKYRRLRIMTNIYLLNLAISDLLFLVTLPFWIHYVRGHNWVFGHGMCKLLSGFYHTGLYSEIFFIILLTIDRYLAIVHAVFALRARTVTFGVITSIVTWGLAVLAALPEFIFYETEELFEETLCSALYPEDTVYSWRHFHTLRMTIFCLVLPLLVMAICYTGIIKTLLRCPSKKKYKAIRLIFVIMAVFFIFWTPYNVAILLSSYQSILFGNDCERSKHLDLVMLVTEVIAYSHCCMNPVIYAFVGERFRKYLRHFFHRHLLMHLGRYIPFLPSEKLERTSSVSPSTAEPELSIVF
# B1: 5P12-RANTES: N-terminally modified RANTES variant (SEQ ID NO: 70), CCR5 inhibitor (protein)
# chain: QGPPLMATQSCCFAYIARPLPRAHIKEYFYTSGKCSNPAVVFVTRKNRQVCANPEKKWVREYINSLEMS
# modifications: ends and bridges not checked
# B2: PRO-140 (antibody, INN chains, looked up, V domains shown)
# VH: EVQLVESGGGLVKPGGSLRLSCAASGYTFSNYWIGWVRQAPGKGLEWIGDIYPGGNYIRNNEKFKDKTTLSADTSKNTAYLQMNSLKTEDTAVYYCGSSFGSNYVFAWFTYWGQGTLVTVSS
# VL: DIVMTQSPLSLPVTPGEPASISCRSSQRLLSSYGHTYLHWYLQKPGQSPQLLIYEVSNRFSGVPDRFSGSGSGTDFTLKISRVEAEDVGVYYCSQSTHVPLTFGQGTKVEIK
# Tests used:
# HIV-1BaL = experiment: HIV-1 replication assay in peripheral blood mononuclear cells; assay type: cell-based; conditions: PBMC from a panel of US donors, FIG. 2
# Procedure: For each donor, each compound was evaluated at 9 concentrations in triplicate. Each point represents log IC50 for an individual donor.
# [1] = test system: CT-26 colorectal cancer cell line; experiment: CT-26 colorectal cancer animal model; assay type: in vivo, BALB/c mice; conditions: for tumor growth / mean tumor volume: intraperitoneal
# Description: In one experiment, BALB/c mice were inoculated subcutaneously with the CT-26 colorectal cancer cell line. […] Treatment was given daily or every third day.
# In another experiment, BALB/c mice were inoculated subcutaneously with the CT-26 colorectal cancer cell line. […] 5P12-RANTES treatment was given five times a week.
# [2] = Preclinical single dose intravenous infusion, cynomolgus macaques; assay type: in vivo; conditions: 20 mg/kg
# Description: (§1) These findings indicate that this N-terminally modified RANTES variant and its structurally related analogs have enhanced efficacy compared to MVC which is known to be therapeutically effective against several types of cancer, with very little side effects.
# recombinant human CCR1 = target: T1, recombinant human CCR1; experiment: GTPγ35S functional assay, inhibition testing, CCR1; assay type: biochemical; conditions: FIG. 3A
# Procedure: (§2) Assay buffer was 20 mM HEPES pH 7.4; 200mM NaCl, 10 μg/ml saponin, MgCl2 at optimized concentration for the specific receptor, 0.1% BSA. CHO-K1 cells expressing recombinant human receptor membrane extracts were thawed on ice, diluted in assay buffer and kept on ice. GDP was diluted in assay buffer to give optimized concentration for the specific receptor. Beads were PVT-WGA (PerkinElmer, RPNQ001), diluted in assay buffer at a concentration optimized for the specific receptor. GTPγ^35S (PerkinElmer NEG030X) was diluted in assay buffer to give 0.1 nM.
# (§3) For inhibition testing, membranes were mixed with GDP and incubated for at least 15 min on ice. In parallel, GTPγ^35S was mixed with the beads just before starting the reaction. The following reagents were successively added in the wells of an Optiplate (PerkinElmer): 50 μL of test or reference ligand, 20 μL of the membranes:GDP mix, 10 μL of reference agonist at historical EC80 and 20 μL of the GTPγ^35S:beads mix.
# (§4) The plates were covered with a top seal, mixed on an orbital shaker for 2 min, and then incubated for 1 hour at room temperature. Then the plates were centrifuged for 10 min at 2000 rpm, incubated at room temperature for 1 hour and counted for 1 min/well with a PerkinElmer TopCount reader. […]
# (§5) Dose-response data were analyzed with XLfit (IDBS) software using nonlinear regression applied to a sigmoidal dose-response model.
# [3] = Preclinical single dose intravenous infusion, rats; assay type: in vivo; conditions: 20 mg/kg
# Description: as §1
# recombinant human CCR3 = target: T2, recombinant human CCR3; experiment: GTPγ35S functional assay, inhibition testing, CCR3; assay type: biochemical; conditions: CHO-K1 membrane extracts; reference agonist at EC80; FIG. 3B
# Procedure: as §2, §3, §4, §5
# human CCR5 [4] = target: T3, human CCR5 (Homo sapiens, UniProt P51681); experiment: cell-based or functional assay
# human CCR5 [5] = target: T3, human CCR5; experiment: CCR5 signaling inhibition, aequorin calcium sensor in CHO cells, agonist human MIP-1β/CCL4; conditions: read-out: IC50, inhibition of CCR5 signaling (FIG. 1C), CHO cells expressing human CCR5, agonist MIP-1β/CCL4, n=2
# Description: The signaling activity measured in the cells at each inhibitor concentration is expressed as a percentage of the signal elicited by the agonist in the absence of inhibitor (n=2) (FIGS. 1A, 1B and 1C).
# T3 sequence (P51681 whole entry): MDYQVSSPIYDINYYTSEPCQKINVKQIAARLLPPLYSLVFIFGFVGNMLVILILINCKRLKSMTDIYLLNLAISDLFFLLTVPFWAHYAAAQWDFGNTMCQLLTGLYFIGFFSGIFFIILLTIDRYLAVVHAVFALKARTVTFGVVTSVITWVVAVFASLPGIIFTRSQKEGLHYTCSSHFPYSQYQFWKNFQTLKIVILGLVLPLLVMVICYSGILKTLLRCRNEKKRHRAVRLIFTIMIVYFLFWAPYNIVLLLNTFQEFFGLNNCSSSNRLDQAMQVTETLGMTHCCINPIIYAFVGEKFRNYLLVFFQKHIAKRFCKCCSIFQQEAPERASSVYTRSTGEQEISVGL
Molecule,times more potent than MVC in inhibiting HIV-1 replication (HIV-1BaL),"adverse events during treatment ([1]; anti-CTLA-4 experiment, start ten days after inoculation)","adverse events during treatment ([1]; anti-PD-1 experiment, start three days after inoculation)","tumor growth / mean tumor volume ([1]; start ten days after inoculation, five times a week, anti-CTLA-4 experiment, FIG. 4B)","tumor growth / mean tumor volume ([1]; start three days after inoculation, daily or every third day, anti-PD-1 experiment, FIG. 4A)",adverse events [2],"antagonism of CCR1 (recombinant human CCR1; CHO-K1 membrane extracts, reference agonist at EC80)",potentiation of CCR1 signaling (recombinant human CCR1; at the highest concentrations),adverse events [3],antagonism towards CCR3 (recombinant human CCR3),"IC50 of inhibition of CCL4-induced CCR5 signaling (aequorin calcium sensor, CHO cells), FIG. 1C (human CCR5 [4]) [nM]",IC50 (human CCR5 [5]) [nM]
B1,10-30 times,No adverse events,No significant adverse events,delayed tumor growth at multiple time-points,statistically significant delayed tumor growth at multiple time-points,without any adverse events,no antagonism,moderate level of potentiation,without any adverse events,no antagonism,–,–
B2,–,–,–,–,–,–,–,–,–,–,5.6,5.6
